Assay results taken from patent publication US20260250398A1 (ANTLERA THERAPEUTICS, published 2026).

Key:
[1] = target: T1, LRP6 (low-density lipoprotein receptor-related protein 6) (UniProt O75581 20-1370, limits assumed); experiment: cell-based or functional assay
T1 sequence (looked up): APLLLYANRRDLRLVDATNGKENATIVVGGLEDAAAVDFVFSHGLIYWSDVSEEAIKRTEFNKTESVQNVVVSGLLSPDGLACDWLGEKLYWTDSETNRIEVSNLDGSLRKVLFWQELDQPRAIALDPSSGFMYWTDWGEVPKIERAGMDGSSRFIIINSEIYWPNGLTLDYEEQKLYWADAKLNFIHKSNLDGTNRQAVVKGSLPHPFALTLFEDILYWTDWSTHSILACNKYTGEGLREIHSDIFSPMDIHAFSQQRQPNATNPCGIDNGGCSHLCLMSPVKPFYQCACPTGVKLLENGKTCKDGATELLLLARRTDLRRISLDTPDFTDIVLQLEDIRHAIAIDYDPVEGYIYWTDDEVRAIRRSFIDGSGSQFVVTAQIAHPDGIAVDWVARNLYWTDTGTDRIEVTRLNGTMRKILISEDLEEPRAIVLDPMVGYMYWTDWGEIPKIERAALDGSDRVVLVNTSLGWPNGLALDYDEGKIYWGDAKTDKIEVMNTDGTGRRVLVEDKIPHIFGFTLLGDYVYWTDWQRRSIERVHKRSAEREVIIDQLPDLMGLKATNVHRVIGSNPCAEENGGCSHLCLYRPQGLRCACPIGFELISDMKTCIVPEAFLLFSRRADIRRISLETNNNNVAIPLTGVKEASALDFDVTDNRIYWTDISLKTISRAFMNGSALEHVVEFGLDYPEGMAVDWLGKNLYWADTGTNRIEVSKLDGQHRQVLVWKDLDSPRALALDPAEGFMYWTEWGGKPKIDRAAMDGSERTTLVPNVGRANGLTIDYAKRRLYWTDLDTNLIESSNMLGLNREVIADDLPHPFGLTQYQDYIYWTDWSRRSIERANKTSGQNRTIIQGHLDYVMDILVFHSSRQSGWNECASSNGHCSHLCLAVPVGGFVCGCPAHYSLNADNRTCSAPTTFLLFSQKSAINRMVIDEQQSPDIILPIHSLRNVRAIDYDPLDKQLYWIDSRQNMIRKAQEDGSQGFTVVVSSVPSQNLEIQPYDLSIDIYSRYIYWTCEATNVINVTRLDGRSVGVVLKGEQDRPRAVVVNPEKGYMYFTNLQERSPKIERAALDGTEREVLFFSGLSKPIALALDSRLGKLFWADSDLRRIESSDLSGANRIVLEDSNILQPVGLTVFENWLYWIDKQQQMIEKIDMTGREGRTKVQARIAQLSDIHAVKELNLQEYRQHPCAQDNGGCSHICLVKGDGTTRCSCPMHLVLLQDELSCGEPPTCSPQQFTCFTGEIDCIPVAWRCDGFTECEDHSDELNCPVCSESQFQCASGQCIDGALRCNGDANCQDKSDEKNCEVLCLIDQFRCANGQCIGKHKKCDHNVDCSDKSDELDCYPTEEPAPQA

[2] = target: T1, LRP6 (low-density lipoprotein …); experiment: cell-based or functional assay; remark: listed apart in the source

TOPFLASH Maximal Signal (% Wnt3a maxima) [1]: 50 % Wnt3a maxima
TOPFLASH % Wnt Maxima [2]: 49 % Wnt Maxima
B1: ANT-1 (LRP Diabody-Fc-FZD Fab; paratopes 2540, 2542; 5016) (bispecific antibody)
heavy 1: MNLLLILTFVAAAVAEFEVQLVESGGGLVQPGGSLRLSCAASGFNISSYYIHWVRQAPGKGLEWVASIYSSYGYTSYADSVKGRFTISADTSKNTAYLQMNSLRAEDTAVYYCARTVRGSKKPYFSGWAMDYWGQGTLVTVSSGGGGSDIQMTQSPSSLSASVGDRVTITCRASQSVSSAVAWYQQKPGKAPKLLIYSASSLYSGVPSRFSGSRSGTDFTLTISSLQPEDFATYYCQQYYFLITFGQGTKVEIKLEDKTHTKVEPKSSDKTHNCPPCPAPELLGGPSVFLFPPKPKDTLMISRTPEVTCVVVDVSHEDPEVKFNWYVDGVEVHNAKTKPREEQYNSTYRVVSVLTVLHQDWLNGKEYKCKVSNKALPAPIEKTISKAKGQPREPQVYTLPPIRELMTSNQVSLSCAVKGFYPSDIAVEWESNGQPENNYKTTPPVLDSDGSFFLVSKLTVDKSRWQQGNVFSCSVMHEALHNHYTQKSLSLSPGKSGSETPGTSESATPESGGGEVQLVESGGGLVQPGGSLRLSCAASGFNIHSSSIHWVRQAPGKGLEWVAATYSSFGSITYADSVKGRFTISADTSKNTAYLQMNSLRAEDTAVYYCARYHHPFGYALDYWGQGTLVTVSSASTKGPSVFPLAPSSKSTSGGTAALGCLVKDYFPEPVTVSWNSGALTSGVHTFPAVLQSSGLYSLSSVVTVPSSSLGTQTYICNVNHKPSNTKVDKKVEPKSCDKTHT
heavy 2: MNLLLILTFVAAAVAEFEVQLVESGGGLVQPGGSLRLSCAASGFNISYSSIHWVRQAPGKGLEWVASISPYYGYTYYADSVKGRFTISADTSKNTAYLQMNSLRAEDTAVYYCARSSYFPWFSAMDYWGQGTLVTVSSGGGGSDIQMTQSPSSLSASVGDRVTITCRASQSVSSAVAWYQQKPGKAPKLLIYSASSLYSGVPSRFSGSRSGTDFTLTISSLQPEDFATYYCQQYYWPITFGQGTKVEIKLEDKTHTKVEPKTSDKTHTCPPCPAPELLGGPSVFLFPPKPKDTLMISRTPEVTCVVVDVSHEDPEVKFNWYVDGVEVHNAKTKPREEQYNSTYRVVSVLTVLHQDWLNGKEYKCKVSNKALPAPIEKTISKAKGQPREPMVFDLPPSREEMTKNQVSLWCMVKGFYPSDIAVEWESNGQPENNYKTTPPVLDSDGSFFLYSKLTVDKSRWQQGNVFSCSVMHEALHNHYTQKSLSLSPGKSGSETPGTSESATPESGGGEVQLVESGGGLVQPGGSLRLSCAASGFNIHSSSIHWVRQAPGKGLEWVAATYSSFGSITYADSVKGRFTISADTSKNTAYLQMNSLRAEDTAVYYCARYHHPFGYALDYWGQGTLVTVSSASTKGPSVFPLAPSSKSTSGGTAALGCLVKDYFPEPVTVSWNSGALTSGVHTFPAVLQSSGLYSLSSVVTVPSSSLGTQTYICNVNHKPSNTKVDKKVEPKSCDKTHT
light: DIQMTQSPSSLSASVGDRVTITCRASQSVSSAVAWYQQKPGKAPKLLIYSASSLYSGVPSRFSGSRSGTDFTLTISSLQPEDFATYYCQQGVYLFTFGQGTKVEIKRTVAAPSVFIFPPSDEQLKSGTASVVCLLNNFYPREAKVQWKVDNALQSGNSQESVTEQDSKDSTYSLSSTLTLSKADYEKHKVYACEVTHQGLSSPVTKSFNRGEC
